This note sets out measurements from publication doi:10.1101/2020.12.04.20244186.

The target of this series is c-KIT extracellular domain (soluble KIT) (UniProt P10721-2 26-516). Nature of the series: square wave voltammetry.

B1: Fc-labeled scrambled control oligo (Au/Fc-control) (ssDNA)
DNA: TGACGGGAGACTTAAAACGCAAGGGGTGCAGCTATCGCGGAGGCCAAGGGTTCAAGTCGACGGGTAGCTAGGTTGGA
modifications: 5'-disulfide (thiol after TCEP, on gold electrode); 3'-NH2 coupled to ferrocene carboxylic acid
On to B1, for which the binding result is recorded as “no binding”.
